Results: US12559863B2, “Macrocyclic modulators of disease associated protein misfolding and aggregation” (RESQ BIOTECH, priority 2017, dated 2026)

How the values were obtained:
SOD1(A4V)-GFP = molecular target: T1, SOD1(A4V)-GFP (Homo sapiens, UniProt P00441, A5V); assay: Fluorescence of E. coli cells co-expressing SOD1(A4V)-GFP and cyclic peptide; format: cell-based; conditions: co-expression of cyclic peptide; compared to random cyclic peptides from initial library
T1 construct: polyHis; expressed in transfected cells; host or cells: E. coli Origami 2(DE3) (BL21(DE3) for the FACS screen)
Text: Electrocompetent E. coli BL21(DE3) cells (Novagen, USA) carrying either the expression vector pETSOD1(A4V)-GFP, which produces SOD1(A4V)-GFP under control of the strong bacteriophage T7 promoter, or pETAβ42-GFP, which produces Aβ42-GFP under control of the T7 promoter, were co-transformed with the combined pSICLOPPS-NuX1X2X3-X5 vector library. Approximately 10^8 transformants carrying both the vector library and either pETSOD1(A4V)-GFP or pETAβ42-GFP vectors were harvested, pooled together, and grown in Luria-Bertani (LB) liquid medium containing either 0.005% (pETSOD1(A4F)-GFP) or 0.002% (pETAβ42-GFP) L-arabinose—the inducer of cyclic peptide production—at 37° C. with shaking. When the optical density at 600 nm (OD600) of the bacterial culture was about 0.5, 0.01 (pETSOD1(A4F)-GFP) or 0.1 (pETAβ42-GFP) mM isopropyl-β-D-thiogalactoside (IPTG) was added to the medium to induce overexpression of the reporter. […] The isolated cells were re-grown and screened for additional rounds in an identical manner until the desired enrichment in high-fluorescence clones was achieved.
For SOD1 or SOD1-GFP production, BL21(DE3) (Novagen, USA) or Origami 2(DE3) cells (Novagen, USA) were transformed with the corresponding SOD1- or SOD1-GFP-encoding vector, either with the appropriate pSICLOPPS vector or alone. […]
Bacterial cells corresponding to 1 mL culture with OD600=1 were harvested by centrifugation and re-suspended in 100 μL phosphate-buffered saline (PBS), transferred to a 96-well FLUOTRAC 200 plate (Greiner Bio One International, Austria), and their fluorescence was measured using a TECAN Safire II-Basic plate reader (Tecan, Austria). Excitation was set at 488 nm and emission was measured at 510 nm.

SOD1(A4V) = molecular target: T2, SOD1(A4V) (Homo sapiens, UniProt P00441, A5V); assay: Circular dichroism of isolated SOD1(A4V) with cyclic peptide; format: biochemical; conditions: 40 μM SOD1(A4V), 25° C., 90 d
T2 construct: polyHis; made in house; host or cells: E. coli Origami 2(DE3)
Method: SOD1 or mutants thereof were overexpressed from the appropriate pET-SOD1 or PASK-SOD1 vectors in E. coli Origami 2(DE3) cells in LB medium containing 50 μg/mL kanamycin (for pET-SOD1) or 100 μg/mL ampicillin (for pASK-SOD1), 200 μM CuCl2, and 200 μM ZnCl2 by the addition of 0.01 mM IPTG (for pET-SOD1) or 0.2 μg/mL anhydrotetracycline (aTc) (for pASK-SOD1), either at 37° C. for 2-3 h or at 18° C. for about 16 h. Origami 2(DE3) cells were utilized in order to provide an oxidizing cytoplasmic environment in order to promote correct formation of disulfide bonds, which are required for proper SOD1 folding and function. Under these conditions, bacterially produced SOD1 is produced in dimeric and enzymatically active form, while it simultaneously co-exists with misfolded, soluble and insoluble SOD1 oligomeric/aggregated species (FIG. 3C). […]
Appropriate amounts of synthetic cyclic peptides were added to either 40 μM SOD1(A4V) or 50 μM Aβ solutions at the desired cyclic peptide:target protein molar ratio. SOD1(A4V) structural changes were monitored for 90 d at 25° C., under quiescent conditions. Aβ structural changes were monitored for 30 d at 33° C. under quiescent conditions. CD spectra in the range 190-260 nm were recorded on a JASCO J-715 spectropolarimeter (Jasco Co., Japan) using quartz cuvettes with 1 mm path length. […]

Aβ42 = molecular target: T3, Aβ42 (Homo sapiens, UniProt P05067); assay: Thioflavin T dye-binding assay of Aβ42; format: biochemical; conditions: 30-d aged CD solutions
T3 construct: one of the secondary products yields a 42-amino-acid-long peptide (Aβ42); purchased Eurogentec, Belgium; host or cells: chemical synthesis
Method: For Aβ ThT staining, 100 μL of the 30-d aged 50 μM CD solutions were diluted in PBS (10 mM, pH 7.33) to form a 25 μM Aβ solution with 200 μL final volume. 2.5 μL from a stock solution of ThT (Sigma-Aldrich, USA) in PBS (10 mM, pH 7.33) was added to the prepared Aβ solutions to achieve a final ThT concentration of 5 μM. The mixture was agitated adequately by pipetting and immediately thereafter, fluorescence was monitored with excitation at 440 nm (EM slit=2.5 nm, PMT Voltage 700 V, response 0.4 s) using a HITACHI F-2500 (Japan) spectrofluorometer.

T2 sequence (P00441 whole entry A5V): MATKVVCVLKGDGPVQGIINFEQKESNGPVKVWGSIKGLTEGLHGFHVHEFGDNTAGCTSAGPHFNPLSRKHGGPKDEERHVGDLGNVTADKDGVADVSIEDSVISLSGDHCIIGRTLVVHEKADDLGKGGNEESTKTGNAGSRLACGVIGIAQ
T1 sequence (P00441 whole entry A5V): as above

Substance: cyclo-TWSVW (cyclic) [SOD1C5-4]
- SOD1(A4V)-GFP fluorescence of E. coli cells (SOD1(A4V)-GFP): highest levels of cellular SOD1(A4V)-GFP fluorescence
- time-dependent conformational transition indicative of SOD1(A4V) aggregation (SOD1(A4V)): significantly delayed
- interaction with SOD1(A4V) by CD spectroscopy (SOD1(A4V); 1:1 and 5:1 peptide:SOD1(A4V)): interacts with SOD1(A4V)
- extent of Aβ42 amyloid fibril formation (ThT) (Aβ42): did not have any effect
